Article PMC5437309

Legend:
GST-JNK1α1 = GST-JNK1α1 (UniProt P45983); test: pull-down; GST-JNK isoform (2 μg) or unfused GST on glutathione beads, rotated 1 h at +4 °C with cleared 293T lysate holding the luciferase fusion (7,000 units), low-salt buffer with 0.5% Igepal, washed three times; luciferase on beads as per cent of input
JNK (Homo sapiens) = JNK (Homo sapiens) (UniProt P45983); details: cited from earlier work

| ratio of pulldown, lit-state mutant against dark-state mutant (GST-JNK1α1) [fold] | Substance | Kd (JNK (Homo sapiens)) [nM] |
| --- | --- | --- |
| 30 | luciferase-fused OptoJNKi.lsm (AsLOV2Jα I539E-JIP11) (from UniProt Q9UQF2 157-167) (designed binder) |  |
|  | JIP peptide (from UniProt Q9UQF2) | 800 |
